Changes are numbered by the printed parent chain.

Common to all, as to details: nanopore translocation; background mutations not given
The target in data set [1] is T1, Dda 1993 K177M K177M (Enterobacteria phage T4) (UniProt P32270).
T1 sequence: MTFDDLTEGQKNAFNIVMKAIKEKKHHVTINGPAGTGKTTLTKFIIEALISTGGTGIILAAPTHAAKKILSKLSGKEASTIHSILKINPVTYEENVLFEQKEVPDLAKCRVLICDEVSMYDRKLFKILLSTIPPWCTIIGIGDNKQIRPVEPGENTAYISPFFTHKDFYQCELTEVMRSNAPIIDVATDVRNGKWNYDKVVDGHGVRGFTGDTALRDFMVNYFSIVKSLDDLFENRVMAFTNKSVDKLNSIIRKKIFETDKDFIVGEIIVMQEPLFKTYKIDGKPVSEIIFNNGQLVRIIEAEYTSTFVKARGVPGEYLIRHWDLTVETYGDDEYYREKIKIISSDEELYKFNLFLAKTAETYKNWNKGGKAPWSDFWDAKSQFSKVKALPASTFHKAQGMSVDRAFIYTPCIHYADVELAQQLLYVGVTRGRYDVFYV

For data set [2], the target named is T2, Dda 1993 K177S K177S (Enterobacteria phage T4) (UniProt P32270).
T2 sequence: T1 sequence with M177S

Data set [3] addresses T3, Dda 1993 K177L K177L (Enterobacteria phage T4) (UniProt P32270).
T3 sequence: T1 sequence with M177L

Data set [4] concerns the target T4, Dda 1993 K177Q K177Q (Enterobacteria phage T4) (UniProt P32270).
T4 sequence: T1 sequence with M177Q

For data set [5], the target named is T5, Dda 1993 K177E K177E (Enterobacteria phage T4) (UniProt P32270).
T5 sequence: T1 sequence with M177E

In data set [6] the target is T6, Dda 1993 K177R K177R (Enterobacteria phage T4) (UniProt P32270).
T6 sequence: T1 sequence with M177R

Take “barcoded 3.6 kb DNA analyte ligated to sequencing Y adaptor”: the activity (bps speed delta vs control) in data set [1] is 48.3; in data set [2], -31.1; in data set [3], 51.4; in data set [4] it was 59.7; in data set [5], 58.7; in data set [6], 21.7.
